Data taken from patent US20260091061A1 (LEGEND BIOTECH IRELAND, published 2026).

T1: mouse GCC (mouse, UniProt Q3UWA6 20-1072)
T1 construct: whole, on cells; also called mGCC; HEK293T.mGCC.Luc cells
T1 sequence (looked up): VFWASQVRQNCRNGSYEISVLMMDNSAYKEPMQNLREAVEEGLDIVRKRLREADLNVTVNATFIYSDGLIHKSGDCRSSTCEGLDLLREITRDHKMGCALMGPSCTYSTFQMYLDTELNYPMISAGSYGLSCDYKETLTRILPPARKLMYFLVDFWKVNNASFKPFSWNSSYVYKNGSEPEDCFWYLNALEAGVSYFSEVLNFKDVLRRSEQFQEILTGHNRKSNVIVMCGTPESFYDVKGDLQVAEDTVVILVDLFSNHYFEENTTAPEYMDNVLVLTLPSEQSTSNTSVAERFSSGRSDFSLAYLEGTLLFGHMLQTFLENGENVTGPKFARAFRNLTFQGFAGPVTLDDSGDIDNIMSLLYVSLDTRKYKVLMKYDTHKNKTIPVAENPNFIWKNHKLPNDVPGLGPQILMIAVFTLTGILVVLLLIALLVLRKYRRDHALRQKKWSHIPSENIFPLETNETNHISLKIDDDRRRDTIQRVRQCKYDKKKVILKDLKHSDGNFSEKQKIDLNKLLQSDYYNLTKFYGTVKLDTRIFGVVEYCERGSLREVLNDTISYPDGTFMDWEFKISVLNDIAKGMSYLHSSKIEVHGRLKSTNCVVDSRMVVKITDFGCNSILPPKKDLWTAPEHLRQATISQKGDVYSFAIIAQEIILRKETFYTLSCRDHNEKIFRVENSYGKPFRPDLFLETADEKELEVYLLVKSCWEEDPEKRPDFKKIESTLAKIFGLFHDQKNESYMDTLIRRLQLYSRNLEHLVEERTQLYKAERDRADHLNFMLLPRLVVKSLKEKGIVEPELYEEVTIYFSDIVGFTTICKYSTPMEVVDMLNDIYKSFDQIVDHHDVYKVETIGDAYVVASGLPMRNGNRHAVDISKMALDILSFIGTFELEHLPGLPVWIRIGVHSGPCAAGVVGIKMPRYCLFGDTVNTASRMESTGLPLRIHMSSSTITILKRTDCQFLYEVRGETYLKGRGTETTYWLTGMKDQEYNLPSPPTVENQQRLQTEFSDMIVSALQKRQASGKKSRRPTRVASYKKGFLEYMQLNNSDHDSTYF


Tests used:
human GCC [1] = biological target: T2, human GCC (human, UniProt P25092 24-1073); test: screen of clone supernatants: cell based ELISA on HEK293T.huGCC.Luc cells and ELISA on recombinant human GCC protein (ACRO GUC-H52H5)
T2 construct: whole, on cells; also called huGCC; Guanylyl cyclase C

human GCC [2] = biological target: T2, human GCC; test: flow cytometry on HEK293T.huGCC.Luc cells, percentage of binding
mouse GCC = biological target: T1, mouse GCC; test: flow cytometry on HEK293T.mGCC.Luc cells, PE goat anti-mouse IgG secondary; Binding % = cells with antibody bound / total cells
huGCC-his = biological target: T3, huGCC-his (human, UniProt P25092 24-430, limits assumed); test: SPR, Biacore T200; antibody captured via Fc, GCC as analyte; 1:1 model
T3 construct: Soluble his-tagged human GCC used as analyte on Biacore; also called GCC (SPR analyte); not shown: his tag
T3 sequence (P25092 24-430 limits assumed): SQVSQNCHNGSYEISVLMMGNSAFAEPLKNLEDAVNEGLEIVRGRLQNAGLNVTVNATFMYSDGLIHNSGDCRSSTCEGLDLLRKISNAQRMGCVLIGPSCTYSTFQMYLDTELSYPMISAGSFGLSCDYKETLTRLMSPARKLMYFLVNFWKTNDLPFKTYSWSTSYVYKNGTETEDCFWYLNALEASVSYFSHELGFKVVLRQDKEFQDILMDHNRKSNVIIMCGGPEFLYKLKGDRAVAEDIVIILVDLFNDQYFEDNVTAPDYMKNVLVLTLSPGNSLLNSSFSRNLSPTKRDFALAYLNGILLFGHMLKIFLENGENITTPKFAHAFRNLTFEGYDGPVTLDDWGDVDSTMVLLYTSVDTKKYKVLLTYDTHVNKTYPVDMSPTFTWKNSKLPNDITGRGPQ

T2 sequence (P25092 24-1073): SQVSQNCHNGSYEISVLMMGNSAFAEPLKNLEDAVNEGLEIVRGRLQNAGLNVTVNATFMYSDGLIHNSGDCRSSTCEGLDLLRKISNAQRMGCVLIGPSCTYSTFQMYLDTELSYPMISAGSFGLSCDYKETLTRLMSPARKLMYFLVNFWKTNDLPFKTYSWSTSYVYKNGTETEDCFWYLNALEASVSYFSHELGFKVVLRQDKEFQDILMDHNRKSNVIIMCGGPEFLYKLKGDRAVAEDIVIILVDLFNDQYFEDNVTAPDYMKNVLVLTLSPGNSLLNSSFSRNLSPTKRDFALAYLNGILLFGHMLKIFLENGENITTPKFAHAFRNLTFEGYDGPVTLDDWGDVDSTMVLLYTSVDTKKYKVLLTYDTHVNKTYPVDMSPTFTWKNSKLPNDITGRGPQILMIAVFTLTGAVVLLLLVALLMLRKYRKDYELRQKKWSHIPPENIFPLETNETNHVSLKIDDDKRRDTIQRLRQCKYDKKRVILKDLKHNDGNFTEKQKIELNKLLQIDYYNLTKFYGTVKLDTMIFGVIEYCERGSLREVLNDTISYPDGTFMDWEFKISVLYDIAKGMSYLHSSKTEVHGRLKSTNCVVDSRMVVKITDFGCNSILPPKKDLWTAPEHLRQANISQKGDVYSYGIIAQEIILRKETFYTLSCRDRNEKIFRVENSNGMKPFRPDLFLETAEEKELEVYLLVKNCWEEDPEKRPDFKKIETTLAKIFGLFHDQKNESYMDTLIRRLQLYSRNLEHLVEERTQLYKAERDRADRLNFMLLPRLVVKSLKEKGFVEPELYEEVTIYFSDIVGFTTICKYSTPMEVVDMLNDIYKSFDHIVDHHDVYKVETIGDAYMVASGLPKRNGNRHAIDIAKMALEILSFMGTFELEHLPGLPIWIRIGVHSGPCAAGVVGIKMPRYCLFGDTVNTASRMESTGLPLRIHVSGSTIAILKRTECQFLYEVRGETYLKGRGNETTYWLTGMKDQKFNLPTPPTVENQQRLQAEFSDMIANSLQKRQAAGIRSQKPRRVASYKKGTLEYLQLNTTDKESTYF

| Binder | binding result (human GCC [1]) | further results |
| --- | --- | --- |
| VHHC0494 (VHH, Screened as E. coli culture supernatant and detected with an anti-cmyc antibody) VHH: QVHLVESGGGSVQSGGSLRLSCATSASPYSMHCMGWFRQAPGKARERVASILNAGSTTYADSVKGRFTISRDNAEKTLYLQMNSLKPEDTGTYYCAARPDAGRWRSACTTELDFGYWGQGTQVTVSS | binds |  |
| VHHC0694 (VHH, Screened as E. coli culture supernatant and detected with an anti-cmyc antibody) VHH: QVQLVESGGGSVQSGGSLRLSCAASGYTYSRYCMAWFRQAPGKEREGVAVIDPDGSTTYADSVKGRFTISQDNAKNTLYLQMNSLKPEDTAMYYCAADPRVWYGGTCRAGRTDFSNWGQGTQVTVSS | binds |  |
| VHHC0806 (VHH, Screened as E. coli culture supernatant and detected with an anti-cmyc antibody) VHH: QVHLVESGGGSVQSGGSLRLSCAGSGYTYSTHCMGWFRQAPGKERERVATIDKDGRTSHYADAVKGRFTISQDNAKNTLYLQMSSLNPEDTAMYYCAAAEHRGAWCPLWDRSAPLLAHIHWGQGTQVTVSS | binds |  |
| VHHC0524 (VHH, Screened as E. coli culture supernatant and detected with an anti-cmyc antibody) VHH: QVQLAESGGGSVQSGGSLRLSCAASGYTYSRYCMAWFRQAPGKEREGVAVIVSDNDGSATYADSVKGRFTISQDNAKNMLYLQMNSLKPEDTAMYYCAADPRVWYGGTCRAGRTDFLYWGQGTQVTVSS | binds |  |
| VHHC0708 (VHH, Screened as E. coli culture supernatant and detected with an anti-cmyc antibody) VHH: QVQLEESGGGSVQSGGSLRLSCAASGYTYSRYCMGWVRQAPGKEREGVALIASDGTTTYADSVKGRFTISQDNAKNTLYLQMNSLKPEDTAMYYCAADAVNWYGSICASMIRRKNPAFGYWGRGTQVTVSS | binds |  |
| VHHA2322 (VHH, Screened as E. coli culture supernatant and detected with an anti-cmyc antibody) VHH: QVHLVESGGGSVQSGGSLRLSCAASGYTGRRLCRGWFRQTPGKEREGVATITLSGRASYADSVKGRFTISQDNAKNTLYLQMNGLKPEDTAMYFCAEVRSADAEWLNPLKCHPDRLGLAGVDWGQGTQVTVSS | binds |  |
| VHHA2322H2-mIgG1Fc (Fc fusion, also called humanized chimeric antibody VHHA2322H2-mIgG1Fc) QVHLVESGGGVVQPGRSLRLSCAASGYTGRRLCRGWFRQAPGKEREGVATITLSGRASYADSVKGRFTISQDNSKNTLYLQMNSLRAEDTAVYFCAEVRSADAEWLNPLKCHPDRLGLAGVDWGQGTTVTVSSVPRDCGCKPCICTVPEVSSVFIFPPKPKDVLTITLTPKVTCVVVDISKDDPEVQFSWFVDDVEVHTAQTQPREEQFNSTFRSVSELPIMHQDWLNGKEFKCRVNSAAFPAPIEKTISKTKGRPKAPQVYTIPPPKEQMAKDKVSLTCMITDFFPEDITVEWQWNGQPAENYKNTQPIMNTNGSYFVYSKLNVQKSNWEAGNTFTCSVLHEGLHNHHTEKSLSHSPGK |  | EC50 (human GCC [2]): 0.0192 nM; binding result (mouse GCC): no binding (tested: 1000 nM); Kd (huGCC-his): 1.65 nM |
| VHHC0708H2-mIgG1Fc (Fc fusion, also called humanized chimeric antibody VHHC0708H2-mIgG1Fc) EVQLVESGGGVVQPGGSLRLSCAASGYTYSRYCMGWVRQAPGKEREGVALIASDGTTTYADSVKGRFTISQDNSKNTLYLQMNSLRAEDTAVYYCAADAVNWYGSICASMIRRKNPAFGYWGQGTLVTVSSVPRDCGCKPCICTVPEVSSVFIFPPKPKDVLTITLTPKVTCVVVDISKDDPEVQFSWFVDDVEVHTAQTQPREEQFNSTFRSVSELPIMHQDWLNGKEFKCRVNSAAFPAPIEKTISKTKGRPKAPQVYTIPPPKEQMAKDKVSLTCMITDFFPEDITVEWQWNGQPAENYKNTQPIMNTNGSYFVYSKLNVQKSNWEAGNTFTCSVLHEGLHNHHTEKSLSHSPGK |  | Kd (huGCC-his): 1.02 nM |
| VHHC0694H2-mIgG1Fc (Fc fusion, also called humanized chimeric antibody VHHC0694H2-mIgG1Fc) QVQLVESGGGVVQPGRSLRLSCAASGYTYSRYCMAWFRQAPGKEREGVAVIDPDGSTTYADSVKGRFTISQDNSKNTLYLQMNSLRAEDTAVYYCAADPRVWYGGTCRAGRTDFSNWGQGTMVTVSSVPRDCGCKPCICTVPEVSSVFIFPPKPKDVLTITLTPKVTCVVVDISKDDPEVQFSWFVDDVEVHTAQTQPREEQFNSTFRSVSELPIMHQDWLNGKEFKCRVNSAAFPAPIEKTISKTKGRPKAPQVYTIPPPKEQMAKDKVSLTCMITDFFPEDITVEWQWNGQPAENYKNTQPIMNTNGSYFVYSKLNVQKSNWEAGNTFTCSVLHEGLHNHHTEKSLSHSPGK |  | EC50 (human GCC [2]): 0.0315 nM; binding result (mouse GCC): no binding (tested: 1000 nM); Kd (huGCC-his): 1.34 nM |
| VHHC0464 (VHH, Screened as E. coli culture supernatant and detected with an anti-cmyc antibody) VHH: QVQLQESGGGLVQAGGSLRLSCLASGLAFPSYAMGWFRQAPGKEREWVSCVTRSGGDTLYADSAKGRFAISRDNAKNTLYLQMNSLKPEDTAMYYCAAALFCANLRRNKDNYWGQGTQVTVSS | binds |  |
| VHHC0467 (VHH, Screened as E. coli culture supernatant and detected with an anti-cmyc antibody) VHH: QMQLVESGGGLVQAGGSLRLSCIASGLTFPTYAMGWFRQAPGKEREWVSCVTRSGGDTLYADSAKGRFTISRDNAKNTLFLQMNSLKPEDTAMYYCVAALFCHNLRLNTGNYWGQGTQVTVSS | binds |  |
| VHHA2493 (VHH, Screened as E. coli culture supernatant and detected with an anti-cmyc antibody) VHH: QMQLVESGGGSVQSGGSLRLSCATNEPPYSIYCMAWFRQAPGKARERVAAILNAGGTRYADSVKGRFTISRDNAAKTFALQMNSLKPEDTGTYYCATRADAGRWGSACTTELDFGNWGQGTQVTVSS | binds |  |
